From US5804555

Target: commercially available lactoferrin (manufactured by Oleofina Company, Belgium) just as isolated from cow's milk (bovine (cow's milk)) (UniProt P24627)

hydrolyzing rate of the product: 11.3%
Substance: commercially available swine pepsin (1:10000; manufactured by Wako Jun-yaku Co., Ltd.) (from UniProt P00791) (enzyme)
